Test results as given in the supplement of paper PMC9112550, “Optimization of the antimicrobial peptide Bac7 by deep mutational scanning” (BMC Biology, 2022).

Tested on: Escherichia coli TOP10
Experiment: shrunken log2 fold change of peptide-encoding DNA abundance (4.5 h post-induction vs induction); higher = less antimicrobial activity (less host growth inhibition)
Conditions: time post-induction: 4.5 h; library: site-saturation at positions 5, 18, 19, 20
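Further: peptides expressed intracellularly from a pBAD plasmid library in pooled LB shake-flask culture, induced with 0.3% L-arabinose, DNA abundance read by NGS, three biological replicates, DESeq2 with apeglm shrinkage.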

Sequence: RRIRMRPPRLPRPRPRPCQYPRP
- shrunken log2 fold change: 0.0396

Sequence: RRIRKRPPRLPRPRPRPRTAPRP
- shrunken log2 fold change: 0.843

Sequence: RRIRGRPPRLPRPRPRPDSHPRP
- shrunken log2 fold change: 0.0299

Sequence: RRIRWRPPRLPRPRPRPLSHPRP
- shrunken log2 fold change: 0.000856

Sequence: RRIRIRPPRLPRPRPRPAIAPRP
- shrunken log2 fold change: -0.206

Sequence: RRIRPRPPRLPRPRPRPVACPRP
- shrunken log2 fold change: -0.0233

Sequence: RRIRPRPPRLPRPRPRPAWCPRP
- shrunken log2 fold change: 0.252

Sequence: RRIRQRPPRLPRPRPRPDTHPRP
- shrunken log2 fold change: -0.347

Sequence: RRIRLRPPRLPRPRPRPTCNPRP
- shrunken log2 fold change: -0.4

Sequence: RRIRWRPPRLPRPRPRPVMFPRP
- shrunken log2 fold change: -0.0114

Sequence: RRIRPRPPRLPRPRPRPAKKPRP
- shrunken log2 fold change: 0.0429

Sequence: RRIRPRPPRLPRPRPRPERHPRP
- shrunken log2 fold change: 0.00192

Sequence: RRIRFRPPRLPRPRPRPYSDPRP
- shrunken log2 fold change: -0.298

Sequence: RRIRPRPPRLPRPRPRPKTYPRP
- shrunken log2 fold change: -0.451

Sequence: RRIRQRPPRLPRPRPRPINCPRP
- shrunken log2 fold change: -0.384

Sequence: RRIRWRPPRLPRPRPRPKGEPRP
- shrunken log2 fold change: 0.74

Sequence: RRIRMRPPRLPRPRPRPILPPRP
- shrunken log2 fold change: 0.0577

Sequence: RRIRSRPPRLPRPRPRPPSPPRP
- shrunken log2 fold change: 0.376

Sequence: RRIRLRPPRLPRPRPRPTWVPRP
- shrunken log2 fold change: 0.0425

Sequence: RRIRGRPPRLPRPRPRPPVEPRP
- shrunken log2 fold change: 0.608

Sequence: RRIRCRPPRLPRPRPRPAAYPRP
- shrunken log2 fold change: -0.101

Sequence: RRIRERPPRLPRPRPRPNRIPRP
- shrunken log2 fold change: -0.0288

Sequence: RRIRWRPPRLPRPRPRPGKSPRP
- shrunken log2 fold change: 0.0772

Sequence: RRIRIRPPRLPRPRPRPFELPRP
- shrunken log2 fold change: -0.138

Sequence: RRIRCRPPRLPRPRPRPKDRPRP
- shrunken log2 fold change: -0.0193

Sequence: RRIRKRPPRLPRPRPRPITFPRP
- shrunken log2 fold change: -0.0147

Sequence: RRIRQRPPRLPRPRPRPRYNPRP
- shrunken log2 fold change: -0.527

Sequence: RRIRTRPPRLPRPRPRPYHMPRP
- shrunken log2 fold change: -0.293

Sequence: RRIRWRPPRLPRPRPRPTVDPRP
- shrunken log2 fold change: 0.296

Sequence: RRIRYRPPRLPRPRPRPTNVPRP
- shrunken log2 fold change: -0.868

Sequence: RRIRLRPPRLPRPRPRPPWSPRP
- shrunken log2 fold change: 0.259

Sequence: RRIRERPPRLPRPRPRPGKVPRP
- shrunken log2 fold change: 0.206

Sequence: RRIRMRPPRLPRPRPRPFIAPRP
- shrunken log2 fold change: -0.251

Sequence: RRIRVRPPRLPRPRPRPQMNPRP
- shrunken log2 fold change: -0.0919

Sequence: RRIRMRPPRLPRPRPRPHVPPRP
- shrunken log2 fold change: 0.107

Sequence: RRIRWRPPRLPRPRPRPLFQPRP
- shrunken log2 fold change: -0.0127

Sequence: RRIRNRPPRLPRPRPRPKGYPRP
- shrunken log2 fold change: -0.0233

Sequence: RRIRDRPPRLPRPRPRPRMTPRP
- shrunken log2 fold change: 0.212

Sequence: RRIRIRPPRLPRPRPRPPEIPRP
- shrunken log2 fold change: -0.578

Sequence: RRIRSRPPRLPRPRPRPLNLPRP
- shrunken log2 fold change: -0.539

Sequence: RRIRLRPPRLPRPRPRPHAKPRP
- shrunken log2 fold change: -0.0928

Sequence: RRIRFRPPRLPRPRPRPVRLPRP
- shrunken log2 fold change: 0.0919

Sequence: RRIRDRPPRLPRPRPRPYCHPRP
- shrunken log2 fold change: -0.121

Sequence: RRIRVRPPRLPRPRPRPTVVPRP
- shrunken log2 fold change: 0.0028

Sequence: RRIRERPPRLPRPRPRPICKPRP
- shrunken log2 fold change: -0.215

Sequence: RRIRLRPPRLPRPRPRPGRWPRP
- shrunken log2 fold change: 0.411

Sequence: RRIRNRPPRLPRPRPRPFAYPRP
- shrunken log2 fold change: 0.0803

Sequence: RRIRTRPPRLPRPRPRPEKVPRP
- shrunken log2 fold change: -0.292

Sequence: RRIRMRPPRLPRPRPRPMREPRP
- shrunken log2 fold change: 0.279

Sequence: RRIRKRPPRLPRPRPRPWFNPRP
- shrunken log2 fold change: -0.209
